Assay results published in patent US20230265187A1 (published 2023).
Where a chain is given by its changes, count along the chain named.

T1: his-tagged human TIGIT (Acro Biosystems #TIT-H52H3) (human, UniProt Q495A1 22-141)
T1 construct: Bought protein; also called His-tagged-TIGIT (human); not shown: his tag
T1 sequence (looked up): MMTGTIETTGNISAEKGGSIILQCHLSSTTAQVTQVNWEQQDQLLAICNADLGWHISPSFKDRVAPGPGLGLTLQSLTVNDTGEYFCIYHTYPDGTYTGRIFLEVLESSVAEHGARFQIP

T2: human TIGIT on Jurkat cells (TIGIT/NFAT reporter Jurkat cells, BPS Bioscience #60538); Promega TIGIT Effector … (human, UniProt Q495A1 22-244)
T2 construct: whole, on cells; Same protein on two bought Jurkat lines (flow cytometry: BPS; bioassay: Promega); also called hu TIGIT cells; cells expressing human TIGIT
T2 sequence (looked up): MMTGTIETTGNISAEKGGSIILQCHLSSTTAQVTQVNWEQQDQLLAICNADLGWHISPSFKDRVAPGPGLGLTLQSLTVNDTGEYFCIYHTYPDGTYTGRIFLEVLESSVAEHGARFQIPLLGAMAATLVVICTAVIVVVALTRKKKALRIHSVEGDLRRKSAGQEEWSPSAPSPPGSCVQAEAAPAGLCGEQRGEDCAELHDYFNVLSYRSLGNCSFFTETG

T3: his-tagged murine TIGIT (Acro Biosystems #TIT-M52E6) (murine, UniProt P86176 29-148, limits assumed)
T3 construct: Bought protein; also called mouse his-tagged TIGIT; not shown: his tag
T3 sequence (looked up): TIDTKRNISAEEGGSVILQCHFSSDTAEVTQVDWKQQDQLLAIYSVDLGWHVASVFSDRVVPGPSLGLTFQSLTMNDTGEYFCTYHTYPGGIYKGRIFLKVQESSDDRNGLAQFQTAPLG

B1: 43586p2.B05 (scFv, V domains shown)
VH: EVQLLESGGGLVQPGGSLRLSCAASGFTFSDYYMNWVRQAPGKGLEYVASINWNGGTTYYADSVKGRFTISRDNSKNTLYLQMSSLRAEDTAVYYCAKDQNWNFYYGMDVWGQGTTVTVSS
VL: QSVLTQPPSASGTPGQRVTISCSGGSSNIGNNFVSWYQQLPGTAPKLLIYNEIKRPSGVPDRFSASKSGTSASLAISGLQSEDEADYYCASWDGSLRGWVFGGGTKLTVL
B2: 43586p2.C01 (scFv, V domains shown)
VH: B1 VH with S84N
VL: B1 VL
B3: 43586p1.1.C2 (scFv, V domains shown)
VH: B1 VH with Y47W, A49S, K76R, S84N
VL: B1 VL with N31T, F33Y, I49L, N51K, I53D, K54Q, A65G, S91T, G98S
B4: 43586p1.1.G9 (scFv, V domains shown)
VH: EVQLLESGGGLVQPGGSLRLSCAASGFTFTTYAMSWVRQAPGKGLEWVAGISYIGSDKYYADSVKGRLTISRDNSKNTLYLQMDSLRAEDTAVYYCAKHLTGGTTDYYYYGMDVWGQGTTVTVS
VL: QSVLTQPPSASGTPGQRVTISCSGSTSNIGTSRYVHWYQHLPGTAPKLLIYLDSQRPSGVPDRFSASKSGTSASLAISGLQSEDEADYYCSAWDDSLSAWVFGGGTKLTVL
B5: 43586p2.B02 (scFv, V domains shown)
VH: EVQLLESGGGLVQPGGSLRLSCAASGFTFTSYAMSWVSQAPGKGLEWVAGISYDGSSKYYADSVKGRLTISRDNSKNTLYLQMNSLRAEDTAIYYCAKHLTGGTTDYYYYAMDVWGQGTTVTVSS
VL: B4 VL with T26R, S32N, H40Q, L52G, D53N, S54H, A66G, S91A
B6: 43352p1.A11 (scFv, V domains shown)
VH: DVQLVESGGGVVRPGESLRLSCAASGFTFSSHAMSWVRQAPGEGLEWVSLTSGNGVSAYYADSVKGRFTISRDNSKNTLYLQMNSLSAEDTAIYYCARGTYLISFFDYWGLGTLVTVSS
VL: QSVLTQPPSASGTPGQRVTISCSGISAKIGNNYVSWYQQLPGTAPKLLIYFNNQRPSGVPDRFSGSKSGTSASLAISGLQSEDEADYYCASWDDSLNAWLFGGGTKLTVL
B7: 43352p1.D11 (scFv, V domains shown)
VH: B6 VH with T51I
VL: B6 VL
B8: 43586p2.B03 (scFv, V domains shown)
VH: EVQLLESGGGWVQPGGSLRLSCAASGFTFIDYWMSWVRQAPGKGLEWVSSISWIGDTTFYADSVKGRFTISRDSSLNTVYLQMNSLRAEDTAVYYCAKHWTVYQYGMDVWGQGTTVTVSS
VL: QSVLTQPPSASGTPGQRVTISCSGGSSKIGSKYVHWYQQLPGTAPKLLIYKDDQRPSGVPDRFSGSKSGTSASLAISGLQSEDEADYYCAAWDDRVNAWVFGGGTKLTVL
B9: 43645p1.C11 (scFv, V domains shown)
VH: EVQLLESGGGLVQPGGSLRPSCATSGFTFSSYWMSWVRQAPGKGLEWVSGIHISDSTYYADSVKGRFTISRDNSKNTLYLQMNSLRAEDTAVYYCAKGHTVLQYGMDVWGQGTTVTVSS
VL: QSGLTQPPSASGTPGQRVTISCSGDISNTRNNYVSWYQQLPGTAPKLLIYGNHQRPSGVPDRFSGSKSATSASLAISGLQSEDEADYYCGTWDNTLNAWVFGGGTKLTVL
B10: 43645p1.B8 (scFv, V domains shown)
VH: EVQLLESGGGLVQPGGSLRLSCAASGFTFSDFWMSWVRQAPGKGLEWVSSIINIQTYDYATYYADSVKGRFTISRDNSKNTLYLQMNSLRAEDTAIYYCAKDVAPGLPGGMDVWGQGTTVTVSS
VL: QSVLTQPPSASGTPGQRVTISCSGSNSNIRNNFVSWYQHLPGMAPKLLIYGNSQRPSGVPDRFSGSKSGTSASLAISGLQSEDEADYYCTSWDFSVNGWVFGGGTKLTVL
B11: 43645p1.C9 (scFv, V domains shown)
VH: B10 VH
VL: B10 VL with M43T, N97S
B12: 43645p1.F7 (scFv, V domains shown)
VH: B10 VH
VL: B10 VL with M43T
B13: 43586p1.2.A4 (scFv, V domains shown)
VH: EVQLLESGGGLVQPGGSLRLSCAASGFTVSDHHMSWVRQAPGKGLEWVSGIDPGGKTYYVDSVKGRFTISRDNSKNTLYLQMNSLRAEDTAVYYCAREQYDWNDDMDVWGQGTTVTVSS
VL: QSVLTQPPSASGTPGQRVTISCSGSRSNVGDHYVSWYQQFPGTAPKLLIYANYQRPSGVPDRFSGSKSGTSASLAISGLQSEDEADHYCASWDASLNVWVFGGGTKLTVL
B14: 43645p1.F12 (scFv, V domains shown)
VH: EVQLLESGGGLVQPGGSLRLSCAASGFTFSDYWMSWVRQAPGKGLEWVSSINWNGDNTYYYADSVKGRFTISRDNSKNTLYLQMNSLRAEDTAVYYCAKSHTVLQYGMDVWGQGTTVTVSS
VL: QSVLTQPPSASGTPGQRVTISCSGSSSNIQSNYVYWYQQLPGTAPKLLIYGNHQRPSGVPDRFSGSKSDTSASLAISGLQSEDEADYYCATWDASLNVWVFGGGTKLTVL
B15: 43586p2.F10 (scFv, V domains shown)
VH: VESGGGLVQPGGSLRLSCAASGFTVSDHYVSWVRQAPGKGLEWVSTSSSTNWNDGRTYYADSVKGRFTISRDNSENTLYLQMNSLRAEDTAVYYCAKDQYKGNDYYYYGMDVWGQGTTVTVSS
VL: QSVLTQPPSASGTPGQRVTISCSASNSYIGTKYFYWYQQLPGTAPKLLIYLDSQRPSGVPDRFSGSKSGTSVSLAISGLQSEDEADYYCAFWDDHLHGWVFGGGTKLTVL

These binders were tested against T1, his-tagged human TIGIT (Acro Biosystems …) (assay: SPR (Carterra LSA), scFv-Fc captured, His-TIGIT analyte).
Procedure: (§1) Binding affinities of anti-TIGIT antibodies to human, cyno, and murine TIGIT were measured by Surface Plasmon Resonance (SPR) on a Carterra LSA instrument. Goat anti-human Fc antibody was amine coupled to a HC30M chip. ScFv-Fc supernatants were diluted 30-fold with HBSTE and were captured by the anti-human Fc coupled HC30M chip. A 1:2 dilution series of his-tagged human TIGIT, starting at 400 nM, was injected onto the chip for binding. A dilution series was also carried out for cyno TIGIT and murine TIGIT. Data were analyzed using the Carterra™ Kinetics software.

Kd [nM]	Binder
0.119	B1
0.151	B2
0.383	B3
1.08	B4
2.19	B5
0.0716	B6
0.0685	B7
67.3	B8
0.0888	B9
0.0906	B10
0.195	B11
0.0741	B12

Each binder was assayed against T4, His-tagged cynomolgus monkey TIGIT (Acro Biosystems #TIT-05223) (cynomolgus monkey, UniProt A0A7N9I9V4 89-209) in the same assay as above.
T4 construct: Bought protein; also called cyno TIGIT; cynomolgus TIGIT; not shown: His tag
T4 sequence (A0A7N9I9V4 entry or part of it): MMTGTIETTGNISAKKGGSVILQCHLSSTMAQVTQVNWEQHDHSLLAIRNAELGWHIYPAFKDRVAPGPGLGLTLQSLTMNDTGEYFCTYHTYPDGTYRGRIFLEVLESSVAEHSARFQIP
Procedure: as §1

Kd [nM]	Binder
3.69	B3
18.8	B4
26.8	B5
23.5	B11

These binders were tested against T2, human TIGIT on Jurkat cells (TIGIT/NFAT …) (assay: flow cytometry, TIGIT/NFAT Jurkat cells, 10 ug/ml).

MFI [MFI]	Binder
9320	B1
7770	B2
6710	B3
9000	B4
9090	B5
13700	B13
8790	B6
8650	B7
4100	B14
6110	B8
9040	B9
14400	B15
9410	B10
16500	B11
15400	B12

What follows are binders tested against T2, human TIGIT on Jurkat cells (TIGIT/NFAT …) (assay: cell-based or functional assay).

max. signal (% of 22G2)	Binder
113 % of 22G2	B4
106 % of 22G2	B5
101 % of 22G2	B6
105 % of 22G2	B7
119 % of 22G2	B9

The binders below were run against T3, his-tagged murine TIGIT (Acro …) (assay: ELISA, coated His-TIGIT, 1 ug/ml).

Elisa OD450 [OD450]	Binder
0.07	B1
0.046	B2
0.046	B3
0.046	B4
0.046	B5
1.82	B13
0.056	B6
0.046	B7
0.052	B14
0.047	B8
1.69	B9
1.29	B15
0.052	B10
0.065	B11
0.489	B12

These binders were tested against T1, his-tagged human TIGIT (Acro Biosystems …) (assay: ELISA, coated His-TIGIT, 1 ug/ml).

Elisa OD450 [OD450]	Binder
1.84	B1
1.81	B2
1.49	B3
2.23	B4
1.94	B5
1.69	B13
0.677	B6
2.15	B7
0.477	B14
1.16	B8
2.18	B9
1.75	B15
1.76	B10
1.86	B11
1.97	B12

Each binder was assayed against T4, His-tagged cynomolgus monkey TIGIT … (assay: ELISA, coated His-TIGIT, 1 ug/ml).

Elisa OD450 [OD450]	Binder
1.32	B1
1.32	B2
0.817	B3
1.6	B4
1.59	B5
0.239	B13
0.048	B6
0.044	B7
0.069	B14
0.047	B8
1.65	B9
0.987	B15
1.38	B10
1.39	B11
1.52	B12
